Results on 1 molecule are retold here after PMC1291349, “Molecular Identification of a Malaria Merozoite Surface Sheddase” (PLoS Pathogens, 2005).

The target of experiment [1] is PfSUB2T, 72-kDa terminal intracellular form of PfSUB2, HA3-tagged (P. falciparum) (UniProt O97364).
For another experiment, the target named is T1, subtilisin BPN′ (UniProt P00782 108-382).
T1 construct: subtilisin BPN′, a bacterial subtilisin; source: bought: Sigma
T1 sequence (looked up): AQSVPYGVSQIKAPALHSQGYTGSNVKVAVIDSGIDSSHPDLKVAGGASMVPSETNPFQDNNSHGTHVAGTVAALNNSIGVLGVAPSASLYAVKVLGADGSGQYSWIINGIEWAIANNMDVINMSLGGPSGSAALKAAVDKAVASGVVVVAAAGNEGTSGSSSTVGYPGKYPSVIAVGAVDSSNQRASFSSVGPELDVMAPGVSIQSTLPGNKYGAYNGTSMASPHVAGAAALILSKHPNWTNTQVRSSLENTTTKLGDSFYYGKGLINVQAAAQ
Kind of experiment: enzyme inhibition kinetics (Ki determination); hydrolysis of N-succinyl-L-Ala-L-Ala-L-Pro-L-Phe-p-nitroanilide by subtilisin BPN′ with PfSUB2PD; Ki determined as in ref. 33; data not shown. Conditions: both partners purified.

Chain of PfSUB2T, 72-kDa terminal intracellular form of PfSUB2, HA3-tagged (P. falciparum) (O97364 688-1342): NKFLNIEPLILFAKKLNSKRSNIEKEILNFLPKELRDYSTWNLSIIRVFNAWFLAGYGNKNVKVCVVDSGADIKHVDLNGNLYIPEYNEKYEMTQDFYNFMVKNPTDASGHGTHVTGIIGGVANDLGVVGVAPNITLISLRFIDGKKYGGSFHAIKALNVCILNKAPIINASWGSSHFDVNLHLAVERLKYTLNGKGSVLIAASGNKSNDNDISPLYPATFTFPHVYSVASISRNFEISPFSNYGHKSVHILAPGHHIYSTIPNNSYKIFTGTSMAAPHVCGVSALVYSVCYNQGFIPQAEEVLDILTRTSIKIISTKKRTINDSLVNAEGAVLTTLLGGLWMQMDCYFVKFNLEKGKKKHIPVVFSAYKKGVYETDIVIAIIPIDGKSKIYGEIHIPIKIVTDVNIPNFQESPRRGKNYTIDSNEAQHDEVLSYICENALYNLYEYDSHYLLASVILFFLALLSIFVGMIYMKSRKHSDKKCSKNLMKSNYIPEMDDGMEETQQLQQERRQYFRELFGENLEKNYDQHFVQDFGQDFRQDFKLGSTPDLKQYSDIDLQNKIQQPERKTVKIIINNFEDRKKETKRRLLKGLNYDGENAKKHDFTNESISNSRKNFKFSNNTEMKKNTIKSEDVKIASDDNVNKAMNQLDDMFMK

B1: PfSUB2PD (recombinant PfSUB2 propeptide, Asn22-Leu687) (domain or fragment)
chain: NNNNNYYLSNIELYNYKLRKRNRILNNNINDRKSFLSDLEQNYKPLFDIYELSANFEKRRKELEKKTKGEENEIEKKKENDLEEKKENEIEKKKENDLEKEYNDVINLLELSLSSEYKELNADVSNNDNSGHEENNKHKLNKKNSSNYKNDKSLDELIKGAILKLKQNPNIKNKNMLDYDKIFKIIKEKLINKNLASNKIKGGDNEKLKEEKKQSDISTNVEVKKDIINDQLNKGIPTKIENKDDMINKESNKEDITNEGKSNSLNNLNTLNNDGNIITKVYDHYTIVTNSNDILNDISIDASDISKNSIGGINIPFNENDNSSFTHQRYIVLSNNGEKKYKIVLMTKNPKFMDMDGIYDEEEKKESLIELNQKVNKEENTNLYDGTGTLYYGKKSKKEKENTQQKGGNNPNVDINILNNNNNNNNNNNNNSNNNSNSMNDEEINYNNNNNKESPSMFRRFINFLSFSGNENETEDTLIYHNKNDNSYKNKKEGTGKNNDNNDPNNNNNKKILLNVDKLVDQYLLNLKNNHTSKQELILVLKGELDLHSKNMKNVINNAKKNLEKYFKEHFKEFDKISYDISTPINFLCIFIPTLFDMNNMDLLKQALLILHNDLHEYVENWSFSSTYHTYEADYIKEQDSVYDRSPKKKYIKASKKLYNNKYSFL
notes: PfSUB2, subtilisin-like protease 2 of P. falciparum T9/96, propeptide region Asn22-Leu687, amplified from the synthetic gene pfsub2synth; Asn22 is the predicted N-terminus after signal peptide removal; Cleavable 46-residue N-terminal fusion peptide with His6 and S-tag, from the vector pET-30Xa/LIC; not shown: His6, N-terminal, kept; S-tag, N-terminal, kept
In turn, B1 returned an IC50 of inhibition of shedding of AMA1 and MSP1 (MESH activity) from isolated 3D7 merozoites; PfSUB2PD titrated from 1.2 μM to 0.075 μM in experiment [1] of 300 nM. The affinity with subtilisin BPN′ corresponds to a Ki of 1200 nM.
